Measured values as given in the supplement of paper PMC9170038.

System: MS2 coat protein
Assay: apparent KD of MS2 coat protein; designed switch direction (-1 OFF switch, 1 ON switch): 1; higher = weaker reporter binding
Procedure, shortened: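 Designed RNA switches sharing common flanks were transcribed on Illumina chips by stalled E. coli RNA polymerase. They were titrated with SNAP-549-labelled MS2 coat protein, from 0.7 or 1.5 nM doubling to 3 µM, in Tris-HCl pH 7.5 buffer with KCl, MgCl2, BSA, DTT, tRNA and Tween-20. Titrations ran without input, with 200 uM small-molecule ligand, or with an oligonucleotide input. The apparent KD of each design is the median over its clusters, after curve-fitting of normalised cluster fluorescence.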

[1] = input ligand: microRNA oligo, concentration not stated
[2] = Eterna round: R95, input ligand: FMN 200 uM
[3] = Eterna round: R95, input ligand: microRNA oligo, concentration not stated
[4] = Eterna round: R95, input ligand: none

Sequence	apparent KD of MS2 coat protein (input ligand: FMN 200 uM)	apparent KD of MS2 coat protein [1]	apparent KD of MS2 coat protein (input ligand: none)	apparent KD of MS2 coat protein [2]	apparent KD of MS2 coat protein [3]	apparent KD of MS2 coat protein [4]
GCAGGACAUGAGGAUCACCCAUGUCUCAAAUAUUGAGGAUAUGGACACGGUAUAUCCGAACCAGAAGGCAACCUGC [SS1 Teenbexe 20] (Eterna round: R96, puzzle: Same State 1)	38.9 nM	31.5 nM	43.7 nM			
CGUCCGGCCUGAGCUGGACGGAAGCUUGUACAUGAGGAUCACCCAUGUUCAUGUGCAGGCUUUUUGCUCGUCUUGUG [salish99_mir208a_modof_jandersonlee] (puzzle: Sensor for hsa-mir-208a)				19.8 nM	18.8 nM	23.4 nM
GGUCCAGCCUGAGCUGGACAAAAGCAUGUACAUGAGGAUCACCCAUGUUCAUGUACAAGCUUUUUGCUCGUCUUACG [salish99_208a_r3_086] (puzzle: Sensor for hsa-mir-208a)				571 nM	19.2 nM	844 nM
UGGCUCAGAGCAGGAUAUAUGCGAUCACAUGAGGAUCACCCAUGUCUCGAGCUUCGGCUCGAGGCAUAGAAGGGCUCUGAGCCU [SSNG2/4-B3] (Eterna round: R96, puzzle: Same State NG 2)	14.9 nM	32.6 nM	45.5 nM			
UGUCCAGCCUGAGCUGGACAAAAGCAUGUACAUGAGGAUCACCCAUGUUCAUGUACAAGCUUUUUGCUCGUCUUGCA [salish99_208a_r3_109x] (puzzle: Sensor for hsa-mir-208a)				637 nM	14.5 nM	492 nM
GGAGCCGGCACCGAGGAUAUUCAUAUUAAAACAUGAGGAUCACCCAUGUAGGCCAGAAGGCCUUGGGAGAAGGCGGAUCGGCUCG [Xeonanis] (Eterna round: R96, puzzle: Same State 2)	33.2 nM	305 nM	544 nM			
UACCGCGCAGAUGCGCAACAUGAGGAUCACCCAUGUGGCACACAGGAUAUCCUGAACAGCUAUUAGGAGAAGGGUGAAGGCCUC [Sotetelequ] (Eterna round: R96, puzzle: Same State NG 3)	128 nM	75.3 nM	78.3 nM			
GCUCGACGUAUUGUCUACAUGAGGAUCACCCAUGUAGGUGCGGAGGAUAUUUACGUGUCUCAUGUAGAGAAGGUCGUGUCGAGC [SameState NG3 #95] (Eterna round: R96, puzzle: Same State NG 3)	912 nM	47.4 nM	46.8 nM			
GAAUAGUUGAGAGGAUAUCUAUGAUAAAAGGAUAGAGAAGGUUUUAACAUGAGGAUCACCCAUGUAGGACUAUAUAUGUGAAUA [Parity 82 - Jieux - Same State NG 1] (Eterna round: R96, puzzle: Same State NG 1)	12.5 nM	11.9 nM	16.9 nM			
UACCAACAUAUAGAACAAGCGUGCUCGUCACAUGAGGAUCACCCAUGUCUAAACGCUGUACCUACAUCCUCAGCGCC [Eddiso] (puzzle: Sensor for hsa-mir-208a)				23.3 nM	24.6 nM	22.8 nM
GUGGUCAGACAUGAGGAUCACCCAUGUGGAAUAAAUAAGGAGAAGGAUAUUAAAUAUAGGAUAUAUAAGAAGGUCUGGUUGGUG (Eterna round: R96, puzzle: Same State NG 3)		65.2 nM				
AUUAUUAAUGCAGGAUAUGAUUAACAUGAGGAUCACCCAUGUGGUGUUGUGAGUAAGGAGAGAGAUCAGAAGGGCAUUUUUUUU [JMF's solution 5] (Eterna round: R96, puzzle: Same State NG 2)	317 nM	263 nM	361 nM			
AGCCGAGACACAGGAUAUACAUGUAUACAUGAGGAUCACCCAUGUAGCAACACGUGGUAGUGAUUGUAGAAGGGUGCUCGGCGC [Omei SS(NG)2 Cv13] (Eterna round: R96, puzzle: Same State NG 2)	20.4 nM	32 nM	36.8 nM			
AGAGGAGGCGCAGGAUAUACGACGGAGGACGAGGUAGAAGGGUGCAUGCGAUAACAUGAGGAUCACCCAUGUACCGCGCGACGA [AK SSNG1-V2-17.1] (Eterna round: R96, puzzle: Same State NG 1)	122 nM	24.9 nM	45.6 nM			
UACAAUCUAUCUCAGGAUAUCAUGUCAAAGACAUGAGGAUCACCCAUGUACCAGGAAACUGGUUAUGAGAAGGGAGAUAGAUUGA [Mat - Same State 2 - Mod - D25] (puzzle: Same State 2)				119 nM	59.1 nM	390 nM
GUGGCGGGUUGAGGAUAUUGGUUGCCUAUGUUUUACAUGAGGAUCACCCAUGUGGGUUGCGGUUUCGAGAAGGUAGGUUGCUGG [salish99_SSNG2_r04_047] (Eterna round: R96, puzzle: Same State NG 2)	420 nM	228 nM	347 nM			
ACUAGAAGCGGGCAAUAACACAUGAGGAUCACCCAUGUGACACAGGAUAUAACCAGAUCAGAAAGUUAGAAGGGUGAGCCCGCA [Usatbere] (Eterna round: R96, puzzle: Same State NG 3)	13.2 nM	19.9 nM	27.4 nM			
UUAUAACAUGAGGAUCACCCAUGUCAACAAAGUCGAGGAUAUGGGCAUAGAUUAUAAGAACCAGAAGGCGAAUAUG [Mat - Same State 1 - Mod of UCT - D41] (puzzle: Same State 1)				140 nM	11.3 nM	1.69 nM
CGUAGGUAGCUGGAGGAUAUUCGAGUGGUAACAUGAGGAUCACCCAUGUGGAGAGAGGUACAUGAGGAGAAGGCUAGCUGCCUGC [JL-ss2-3.14 JL mod] (puzzle: Same State 2)				13.4 nM	22 nM	27.1 nM
AUGCCAAAUGGAGGAUAUGGAGCCUUAUUGGCUCCAGAAGGUCAGACAUGAGGAUCACCCAUGUGGCAGUGGUCUAAUGACCAC [Eli NG1ss - 39] (Eterna round: R96, puzzle: Same State NG 1)	126 nM	392 nM	638 nM			
AACAAUCUAUCUGAGGAUAUCAUGAGAAGAACAUGAGGAUCACCCAUGUGCAGGAAAACUGCAUAUGAGAAGGCAGAUAGAUUGG [Mat - Same State 2 - Mod - D18] (puzzle: Same State 2)				52.8 nM	621 nM	1950 nM
GCUCGGAUGAUGGCCCACAUGAGGAUCACCCAUGUGCGUGGGCAGGAUAUCUAGAUUAAGGAUGUAGAGAAGGGUCUACCGAGC [SameState NG3 #32] (Eterna round: R96, puzzle: Same State NG 3)	194 nM	67.9 nM	128 nM			
GGUAGGUUACUACCAAACAUGAGGAUCACCCAUGUAAGUGGGAAGGAUAUGGUACCUUUUAGGUACCAGAAGGUCCAUAAAAUU [JL Fiskers NG3ss - 2 mod 7] (Eterna round: R96, puzzle: Same State NG 3)	314 nM	355 nM	2090 nM			
